Measurements published in US20180298051A1 (Scripps Research, published 2018).
Ends that are not written are not given here.

Biological target: T1, RXFP1 on RXFP1 CRE-Bla cells (human, UniProt Q9HBX9 1-757)
T1 sequence (looked up): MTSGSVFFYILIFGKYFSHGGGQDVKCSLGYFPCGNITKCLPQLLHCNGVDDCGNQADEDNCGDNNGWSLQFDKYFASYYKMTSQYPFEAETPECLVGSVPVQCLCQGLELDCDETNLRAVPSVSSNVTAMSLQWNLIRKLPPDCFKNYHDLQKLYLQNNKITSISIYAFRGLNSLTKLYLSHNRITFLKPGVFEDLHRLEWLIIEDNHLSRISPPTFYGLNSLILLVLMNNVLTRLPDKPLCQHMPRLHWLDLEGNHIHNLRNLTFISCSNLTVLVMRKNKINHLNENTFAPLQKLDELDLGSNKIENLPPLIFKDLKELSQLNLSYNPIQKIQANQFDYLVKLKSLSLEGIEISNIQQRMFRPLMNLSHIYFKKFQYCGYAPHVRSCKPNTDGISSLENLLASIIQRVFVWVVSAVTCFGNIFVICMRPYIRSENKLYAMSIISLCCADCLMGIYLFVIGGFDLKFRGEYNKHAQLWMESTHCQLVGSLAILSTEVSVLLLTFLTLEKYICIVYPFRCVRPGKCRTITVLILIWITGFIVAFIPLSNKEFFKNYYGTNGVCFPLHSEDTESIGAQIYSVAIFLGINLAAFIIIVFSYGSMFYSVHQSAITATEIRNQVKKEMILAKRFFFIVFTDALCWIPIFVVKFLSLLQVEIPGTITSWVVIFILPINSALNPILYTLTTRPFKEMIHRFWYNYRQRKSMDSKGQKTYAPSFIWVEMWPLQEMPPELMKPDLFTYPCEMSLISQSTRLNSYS
Experiment: cell-based or functional assay

EC50, in vitro FRET assay, RXFP1 CRE-Bla cells: 4.9 nM
B1: relaxin-H2 protein (R&D Systems) (ligand)
chain 1: QLYSALANKCCHVGCTKRSLARFC
chain 2: DSWMEEVIKLCGRELVRAQIAICGMSTWS
modifications: disulfide (positions not given here); ends not checked; also: three disulfides: two between A and B chains, one within A chain, pairings not given here
